This note sets out measurements from patent US20150320880A1, “ANTIBODY DRUG CONJUGATES” (NOVARTIS AG, priority 2013, published 2015).

Where a chain is given by its changes, count along the chain named.

For data set [1], the system named is HAMLX5343 systemic primary AML xenograft.
Data set [2] has as its target T1, Mouse cKIT ECD, C-terminal 6x His (Sino Biological Inc, catalog number 50530-M08H) (mouse, UniProt P05532 25-527).
T1 construct: extracellular domain; Bought protein
T1 sequence (looked up): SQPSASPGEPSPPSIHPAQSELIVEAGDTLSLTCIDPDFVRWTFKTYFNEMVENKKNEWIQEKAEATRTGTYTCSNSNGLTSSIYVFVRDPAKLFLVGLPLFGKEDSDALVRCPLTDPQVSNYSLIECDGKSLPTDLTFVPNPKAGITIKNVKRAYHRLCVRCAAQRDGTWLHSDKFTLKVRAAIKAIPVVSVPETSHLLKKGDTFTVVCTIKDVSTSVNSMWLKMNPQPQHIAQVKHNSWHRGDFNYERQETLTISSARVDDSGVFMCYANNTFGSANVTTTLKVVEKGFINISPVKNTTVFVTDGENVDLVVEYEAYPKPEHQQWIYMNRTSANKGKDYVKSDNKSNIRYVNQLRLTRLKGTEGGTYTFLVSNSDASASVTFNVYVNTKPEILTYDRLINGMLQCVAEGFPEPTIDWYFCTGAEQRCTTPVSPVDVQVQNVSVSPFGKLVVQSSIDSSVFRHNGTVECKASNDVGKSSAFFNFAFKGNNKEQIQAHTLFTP
The data set is described as follows: SPR (Biacore 2000), antibody captured on anti-human Fc.

Data set [3] addresses T2, Rat cKIT D1-5 (residues 25-526, C-terminal mFc) (rat).
T2 construct: The entry includes the linker and mouse Fc tag; also called rat cKIT-mFc
T2 chain: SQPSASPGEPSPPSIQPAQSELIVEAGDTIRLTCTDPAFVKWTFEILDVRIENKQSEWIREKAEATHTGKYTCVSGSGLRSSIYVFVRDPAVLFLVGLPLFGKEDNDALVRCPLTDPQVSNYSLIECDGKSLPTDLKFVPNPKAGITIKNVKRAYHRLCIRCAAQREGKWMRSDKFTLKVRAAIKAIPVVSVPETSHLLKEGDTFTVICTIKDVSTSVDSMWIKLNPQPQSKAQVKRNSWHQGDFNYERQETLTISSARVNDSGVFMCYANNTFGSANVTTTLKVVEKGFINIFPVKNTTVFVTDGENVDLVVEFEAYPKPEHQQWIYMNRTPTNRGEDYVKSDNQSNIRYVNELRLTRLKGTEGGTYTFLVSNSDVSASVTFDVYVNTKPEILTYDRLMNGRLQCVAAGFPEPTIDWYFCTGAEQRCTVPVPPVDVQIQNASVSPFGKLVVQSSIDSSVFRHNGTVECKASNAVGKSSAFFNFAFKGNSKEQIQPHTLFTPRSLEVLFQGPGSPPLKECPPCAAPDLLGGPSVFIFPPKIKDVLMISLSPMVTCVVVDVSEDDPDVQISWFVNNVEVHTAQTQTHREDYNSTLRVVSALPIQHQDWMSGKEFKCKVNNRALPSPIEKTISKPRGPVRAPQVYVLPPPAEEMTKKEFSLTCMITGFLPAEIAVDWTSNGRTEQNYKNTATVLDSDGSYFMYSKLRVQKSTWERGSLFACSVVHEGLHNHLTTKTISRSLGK
Described as above.

Data set [4] concerns the target T3, Human cKIT D1-5 (human cKIT tr. variant 2, residues 26-520, C-terminal His tag) (human, UniProt P10721 26-524).
T3 construct: also called human cKIT ECD; Human c-Kit ECD
The data set is described as follows: SPR (Biacore T100), CM5 chip, method as in Example 7; unconjugated antibody.

The target of data set [5] is T3, Human cKIT D1-5 (human cKIT tr. variant …). Kind of data set: SPR (Biacore 2000), antibody captured on anti-human Fc, cKIT ECD as analyte, 25 C, 1:1 fit.
Data set [6] has as its target T4, Cynomolgus monkey cKIT D1-5 (residues 25-520, C-terminal His tag) (cynomolgus monkey, UniProt P10721 25-520 (human entry)).
T4 construct: the signal peptide was not part of the protein in the assay; also called cyno cKIT; cynomolgus monkey ECD
T4 chain: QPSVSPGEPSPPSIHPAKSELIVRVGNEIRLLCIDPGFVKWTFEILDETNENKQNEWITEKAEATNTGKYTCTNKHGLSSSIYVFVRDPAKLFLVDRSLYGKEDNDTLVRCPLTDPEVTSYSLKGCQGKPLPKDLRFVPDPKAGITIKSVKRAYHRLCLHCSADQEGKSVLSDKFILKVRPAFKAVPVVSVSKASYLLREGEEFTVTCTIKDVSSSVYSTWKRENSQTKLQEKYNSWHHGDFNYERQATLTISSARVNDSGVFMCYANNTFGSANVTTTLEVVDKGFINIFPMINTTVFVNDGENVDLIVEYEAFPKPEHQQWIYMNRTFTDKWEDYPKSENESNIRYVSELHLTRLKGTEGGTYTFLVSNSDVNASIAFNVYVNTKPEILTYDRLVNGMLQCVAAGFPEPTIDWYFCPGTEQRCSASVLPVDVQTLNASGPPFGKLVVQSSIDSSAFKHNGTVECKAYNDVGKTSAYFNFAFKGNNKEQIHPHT
Described as above.

Another data set concerns the target T5, human cKIT ECD (Homo sapiens, UniProt P10721).
T5 construct: Human cKIT tr. variant 2, residues 26-520-TAG; made in house; host or cells: HEK293 derived cell lines (293FS), transient transfection
The data set is described as follows: SPR (Biacore 2000) affinity measurement. The data set is classed as binding. The note with it: 25° C. The protocol: (§1) Affinity of the antibodies to cKIT species orthologues and also to cKIT was determined using SPR technology using a Biacore® 2000 instrument (GE Healthcare, Pittsburgh, Pa.) and with CM5 sensor chips.
(§2) Briefly, HBS-P (0.01 M HEPES, pH 7.4, 0.15 M NaCl, 0.005% Surfactant P20) supplemented with 2% Odyssey® blocking buffer (Li-Cor Biosciences, Lincoln, Nebr.) was used as the running buffer for all the experiments. The immobilization level and analyte interactions were measured by response unit (RU). Pilot experiments were performed to test and confirm the feasibility of the immobilization of the anti-human Fc antibody (Catalog number BR100839, GE Healthcare, Pittsburgh, Pa.) and the capture of the test antibodies.
(§3) For kinetic measurements, the experiments were performed in which the antibodies were captured to the sensor chip surface via the immobilized anti-human Fc antibody and the ability of the cKIT proteins to bind in free solution was determined Briefly, 25 μg/ml of anti-human Fc antibody at pH 5 was immobilized on a CM5 sensor chip through amine coupling at flow rate of 5 μl/minute on all two flow cells to reach 10,500 RUs. 0.1-1 μg/ml of test antibodies were then injected at 10 μl/min for 1 minute. Captured levels of the antibodies were generally kept below 200 RUs. Subsequently, 3.125-50 nM of cKIT receptor extracellular domains (ECD) were diluted in a 2-fold series and injected at a flow rate of 40 μl/min for 3 min over both reference and test flow cells. Table of tested ECDs is listed below. Dissociation of the binding was followed for 10 min. After each injection cycle, the chip surface was regenerated with 3 M MgCl2 at 10 μl/min for 30 s.

The target of another data set is mouse cKIT ECD. The data set is described as follows: SPR (Biacore 2000) affinity measurement. Format: binding. The note with it: 25° C. As for the experimental part:
as §1, §2, §3

T3 sequence (P10721 other isoform, or with tags, fused parts or gaps mutant limits assumed): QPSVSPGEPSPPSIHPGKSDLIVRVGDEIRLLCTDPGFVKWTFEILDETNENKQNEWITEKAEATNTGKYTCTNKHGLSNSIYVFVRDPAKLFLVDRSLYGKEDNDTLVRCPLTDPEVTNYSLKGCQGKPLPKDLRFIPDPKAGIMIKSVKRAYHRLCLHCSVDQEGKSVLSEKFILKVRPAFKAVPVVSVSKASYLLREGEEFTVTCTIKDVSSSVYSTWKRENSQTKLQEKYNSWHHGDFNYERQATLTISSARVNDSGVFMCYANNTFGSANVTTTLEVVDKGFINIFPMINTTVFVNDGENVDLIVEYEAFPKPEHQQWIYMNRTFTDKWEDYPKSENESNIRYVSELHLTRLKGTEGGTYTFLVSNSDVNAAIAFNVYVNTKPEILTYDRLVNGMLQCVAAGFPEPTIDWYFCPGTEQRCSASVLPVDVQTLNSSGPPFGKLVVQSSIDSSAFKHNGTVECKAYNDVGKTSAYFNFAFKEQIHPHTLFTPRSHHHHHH
T5 sequence (P10721 with tags, fused parts or gaps isoform P10721-2): as the sequence (P10721 other isoform, or with tags, fused parts or gaps mutant limits assumed) above

Regarding `Nc1ccn([C@@H]2O[C@H](CO)[C@@H](O)[C@@H]2O)c(=O)n1` [ARA-C (cytarabine), cytarabine, reference compound], the “Mean change of body weight (from day 67, % ± SEM)” value in data set [1] (Day 71, 50 mg/kg Daily × 6 days, intraperitoneally) was 2.3 ± 2.3%. Also, the “anti-tumor activity (leukemic burden)” value in data set [1] (NSG mice, intraperitoneally daily for 6 days) is recorded as “efficacious in three of the animals”. Moreover, in data set [1] (intraperitoneally daily for 6 days, in three of six animals), the bodyweight loss is on record as greater than 20%. For the same molecule, in data set [1] (mouse, in vivo), the “Mean change of tumor volume (% CD45 positive PBMC's ± SEM)” value is recorded as −6.6 ± 2.1 % CD45 positive PBMC's and the “Regression (%)” value is recorded as −52.5%.

B1: NEG086 (antibody, human IgG1, kappa, V domains shown)
VH: EVQLVESGGGLVQPGGSLRLSCAASGFTFSDYYMAWVRQAPGKGLEWVANINQIAGSTYYVDSVQGRFTISRDNAKNSLYLQMNSLRAEDTAVYYCARGDYYGTTYWYFDVWGQGTTVTVSS
VL: DIQMTQSPSSLSASVGDRVTITCRASQSISSYLNWYQQKPGKAPKLLIYYTSRLQSGVPSRFSGSGSGTDFTLTISSLQPEDFATYYCQQGRRLWSFGGGTKVEIKR
notes: Humanized, optimized variant of 9P3; human IgG1 kappa
Consider B1, for which the binding result in data set [2] and in data set [3] was “no binding (tested: 3.125-50 nM of cKIT ECD injected)” throughout. Further, the Kd came out at 1.4 nM in data set [4], 1.44 nM in data set [5] and 1.34 nM in data set [6].

B2: NEG027 (antibody, human IgG1, kappa, V domains shown)
VH: B1 VH with N50S, I54N, A55T, V61L, Q65R
VL: EIVMTQSPATLSLSPGERATLSCRASQDISNYLNWYQQKPGQAPRLLIYYTSRLQSGIPARFSGSGSGTDYTLTISSLEPEDFAVYYCQQGKKLWSFGGGTKVEIKR
notes: as for B1
As to B2, the binding result in data set [2] and in data set [3] was “no binding (tested: 3.125-50 nM of cKIT ECD injected)” in each case. In addition, in data set [5], the Kd came to 1.34 nM.

B3: NEG027: anti-cKIT antibody of Table 1; VH SEQ ID NO 64, VL SEQ ID NO 73 (antibody, V domains shown)
VH: B1 VH with N50S, I54N, A55T, V61L, Q65R
VL: EIVMTQSPATLSLSPGERATLSCRASQDISNYLNWYQQKPGQAPRLLIYYTSRLQSGIPARFSGSGSGTDYTLTISSLEPEDFAVYYCQQGKKLWSFGGGTKVEIK
Take B3: the “Affinity human cKIT (nM)” value with human cKIT ECD is given as “nanomolar level”. Also, the “Affinity mouse cKIT (nM)” value on mouse cKIT ECD is reported as “Not reactive”.

B4: NEG086: anti-cKIT antibody of Table 1; VH SEQ ID NO 100, VL SEQ ID NO 109 (antibody, V domains shown)
VH: B1 VH
VL: DIQMTQSPSSLSASVGDRVTITCRASQSISSYLNWYQQKPGKAPKLLIYYTSRLQSGVPSRFSGSGSGTDFTLTISSLQPEDFATYYCQQGRRLWSFGGGTKVEIK
Turning to B4, the “Affinity human cKIT (nM)” value in the data set with human cKIT ECD is reported as “nanomolar level”. Also, the “Affinity mouse cKIT (nM)” value on mouse cKIT ECD was “Not reactive”.

B5: NEG026: anti-cKIT antibody of Table 1; VH SEQ ID NO 46, VL SEQ ID NO 55 (antibody, V domains shown)
VH: B1 VH with I54N, A55T
VL: B3 VL
As to B5, the “Affinity mouse cKIT (nM)” value at mouse cKIT ECD was “Not reactive”.

B6: NEG085 (antibody, human IgG1, kappa, V domains shown)
VH: B1 VH with T28A, D31G, Q53Y, I54P, A55G, G56S, V61L, Q65K
VL: B1 VL
notes: Humanized, optimized variant of 9P3; human IgG1 kappa; also called unconjugated NEG085
On to B6, for which the binding result in data set [2] and in data set [3] was “no binding (tested: 3.125-50 nM of cKIT ECD injected)” in each case. Further, the Kd in data set [4] was 4.2 nM; in data set [5], 8.4 nM; in data set [6] it was 6.14 nM.

B7: NEG024 (antibody, human IgG1, kappa, V domains shown)
VH: B1 VH with V61L, Q65R
VL: B2 VL
notes: as for B1
Consider B7, for which the binding result in data set [2] and in data set [3] was “no binding (tested: 3.125-50 nM of cKIT ECD injected)” throughout. The Kd is 1.3 nM in data set [4], 1.31 nM in data set [5] and 1.15 nM in data set [6].

B8: NEG087 (antibody, human IgG1, kappa, V domains shown)
VH: B1 VH with N50S, I54N, A55T, V61L, Q65R
VL: B1 VL
notes: as for B1
As to B8, the binding result in data set [2] and in data set [3] was “no binding (tested: 3.125-50 nM of cKIT ECD injected)” in each case. Also, the results for the Kd in data set [5] and in data set [6] were 1.13 nM and 1.39 nM, respectively.
